T1: Recombinant "core" exomer complex (Chs5 residues 1–77 and Chs6-6xHis) (S. cerevisiae, UniProt Q12114 1-77; P40955 1-746)
T1 construct: Chs5, S. cerevisiae, residues 1–77; Chs6, S. cerevisiae; The end of the 6xHis tag is read from the printed name Chs6-6xHis; also called Chs5(1–77)/Chs6-6xHis exomer complex; purified exomer; source: recombinant, purified as described for the Chs5(1–299)/Chs6-6xHis construct (Paczkowski et al., 2012); not shown: His6, C-terminal, kept
T1 sequence (looked up) 1: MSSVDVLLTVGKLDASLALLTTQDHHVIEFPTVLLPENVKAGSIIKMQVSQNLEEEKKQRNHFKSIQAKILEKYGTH
T1 sequence (looked up) 2: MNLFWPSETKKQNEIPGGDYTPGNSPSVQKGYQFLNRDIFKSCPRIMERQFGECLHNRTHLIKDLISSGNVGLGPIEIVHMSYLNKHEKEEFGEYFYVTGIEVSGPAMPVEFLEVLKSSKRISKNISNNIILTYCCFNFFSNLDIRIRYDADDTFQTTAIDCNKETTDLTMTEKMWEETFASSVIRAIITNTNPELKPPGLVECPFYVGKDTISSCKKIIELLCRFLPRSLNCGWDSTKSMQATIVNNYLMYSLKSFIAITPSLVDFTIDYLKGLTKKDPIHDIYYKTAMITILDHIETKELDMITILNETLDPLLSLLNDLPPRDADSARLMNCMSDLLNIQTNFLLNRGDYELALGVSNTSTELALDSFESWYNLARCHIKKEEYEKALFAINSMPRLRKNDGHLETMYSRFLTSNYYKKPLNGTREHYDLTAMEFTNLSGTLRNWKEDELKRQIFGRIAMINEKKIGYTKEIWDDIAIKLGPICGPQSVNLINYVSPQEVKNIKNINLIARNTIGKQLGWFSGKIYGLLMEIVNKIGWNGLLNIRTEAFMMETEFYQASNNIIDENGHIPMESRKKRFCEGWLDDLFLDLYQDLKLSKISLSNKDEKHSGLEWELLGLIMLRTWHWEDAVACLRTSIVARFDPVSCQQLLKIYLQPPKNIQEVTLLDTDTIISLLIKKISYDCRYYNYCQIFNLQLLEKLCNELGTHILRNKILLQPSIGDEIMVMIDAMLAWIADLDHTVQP

T2: Chs6-6xHis (S. cerevisiae, UniProt P40955 1-746)
T2 construct: Chs6, S. cerevisiae; The Chs6 chain of m1, written alone for the pairs that touch in the crystal structure; The end of the tag is read from the printed name; also called His-tagged Chs6; source: recombinant, purified with Chs5(1–77) as described (Paczkowski et al., 2012); not shown: His6, C-terminal, kept
T2 sequence (looked up): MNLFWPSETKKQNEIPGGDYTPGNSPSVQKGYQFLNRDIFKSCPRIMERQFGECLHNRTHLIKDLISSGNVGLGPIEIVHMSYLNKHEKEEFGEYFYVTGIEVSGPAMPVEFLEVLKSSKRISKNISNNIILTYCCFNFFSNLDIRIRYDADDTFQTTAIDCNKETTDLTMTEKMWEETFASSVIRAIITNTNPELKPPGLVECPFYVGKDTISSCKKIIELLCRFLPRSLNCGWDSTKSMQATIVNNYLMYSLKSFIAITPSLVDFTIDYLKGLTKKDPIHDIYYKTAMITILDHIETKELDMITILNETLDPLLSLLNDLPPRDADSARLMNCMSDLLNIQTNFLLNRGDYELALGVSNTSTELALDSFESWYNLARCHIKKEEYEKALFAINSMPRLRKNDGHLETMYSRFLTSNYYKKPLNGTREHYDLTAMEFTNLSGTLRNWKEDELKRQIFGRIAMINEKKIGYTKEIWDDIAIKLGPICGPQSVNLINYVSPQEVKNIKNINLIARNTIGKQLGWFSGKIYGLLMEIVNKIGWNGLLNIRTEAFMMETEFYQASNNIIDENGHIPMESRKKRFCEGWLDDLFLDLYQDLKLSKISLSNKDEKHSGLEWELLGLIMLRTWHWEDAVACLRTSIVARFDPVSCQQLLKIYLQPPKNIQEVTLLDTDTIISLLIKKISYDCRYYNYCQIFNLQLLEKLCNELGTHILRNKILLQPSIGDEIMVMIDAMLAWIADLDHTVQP


How the values were obtained:
[1] = biological target: T1, Recombinant "core" exomer complex (Chs5 …); experiment: pull-down; GST-Chs3 fragments held on glutathione resin; 10 μl of 5 mg/ml purified exomer added to resin in 500 μl PBS + 1 mM DTT, ~1 h at 4°C, washed 3 times; exomer detected by Western blot with anti-6xHis antibody (by Coomassie staining in Figure 5C); conditions: both partners purified
Chs6-6xHis = biological target: T2, Chs6-6xHis; experiment: crystal structure; Chs5(1–77)/Chs6-6xHis exomer co-crystallised with Chs3 peptide, hanging drop vapor diffusion; 0.3 M ammonium sulfate, 0.1 M citric acid pH 4.0; molar ratio 3.85:1 peptide:exomer; conditions: both partners purified

Row | Binder | binding result [1] | binding result (Chs6-6xHis)
1 | GST-Chs3(1–52) (domain or fragment, S. cerevisiae, UniProt P29465 1-52, looked up, Chs3 (chitin synthase), S. cerevisiae, residues 1–52; Vector pGEX-2T; the end of GST is read from the printed name GST-Chs3; also called Residues 1–52; wild-type GST-Chs3(1–52) fragment; source: E. coli Rosetta2 (DE3), isolated from cleared lysate on glutathione resin; not shown: GST, N-terminal, kept) MTGLNGDDPDDYYLNLNQDEESLLRSRHSVGSGAPHRQGSLVRPERSRLNNP | binds | –
2 | MTGLNGDDPHSVGSGAPHRQGSLVRPERSRLNNP (domain or fragment, S. cerevisiae, UniProt P29465 1-52, looked up, Chs3 (chitin synthase), S. cerevisiae, residues 1–52 lacking residues 10–27; Vector pGEX-2T; the end of GST is read from the printed name GST-Chs3; source: E. coli Rosetta2 (DE3), isolated from cleared lysate on glutathione resin; not shown: GST, N-terminal, kept) [GST-Chs3 fragment, residues 1–52 with residues 10–27 deleted] | binds | –
3 | HSVGSGAPHRQGSLVRPERSRLNNP (domain or fragment, S. cerevisiae, UniProt P29465 28-52, looked up, Chs3 (chitin synthase), S. cerevisiae, residues 28–52; Vector pGEX-2T; the end of GST is read from the printed name GST-Chs3; source: E. coli Rosetta2 (DE3), isolated from cleared lysate on glutathione resin; not shown: GST, N-terminal, kept) [GST-Chs3 fragment, residues 28–52] | binds | –
4 | DDYYLNLNQDEESLLRSR (peptide, UniProt P29465 10-27, looked up, Chs3 (chitin synthase), S. cerevisiae, residues 10–27; only residues 12–25 are visible in the structure; also called peptide of Chs3 residues 10–27; source: synthetic peptide (Genscript, 95% purity)) [Chs3 peptide matching residues 10–27] | – | binds
5 | Chs5(1–77) (domain or fragment, S. cerevisiae, UniProt Q12114 1-77, looked up, Chs5, S. cerevisiae, residues 1–77; The Chs5 chain of m1, written alone for the pair that touches in the crystal structure; also called Chs5 residues 1–77; truncated Chs5; source: recombinant, purified with Chs6-6xHis as described (Paczkowski et al., 2012)) MSSVDVLLTVGKLDASLALLTTQDHHVIEFPTVLLPENVKAGSIIKMQVSQNLEEEKKQRNHFKSIQAKILEKYGTH | – | binds

From paper PMC4207043, “Distinct N-terminal regions of the exomer secretory vesicle cargo Chs3 regulate its trafficking itinerary” (Frontiers in Cell and Developmental Biology, 2014)
